Measurements published in patent US20230338564A1, “NEODEGRADER CONJUGATES” (Orum Therapeutics, Inc., priority 2020, published 2023).

Tested on: RD-ES cell line
Assay: In vitro antiproliferation assay, General Procedure 2 (CCK-8)
Assay type: cell-based
Details: Ewing’s sarcoma
Source text: Cell Culture: Cell lines were obtained from the American Type Culture Collection (ATCC, Manassas, VA, USA) or Deutsche Sammlung von Mikroorganismen und Zellkulturen (DSMZ, Braunschweig, Germany) and maintained according to the culturing conditions specified by ATCC or DSMZ. Cells were thawed out and maintained in culture for at least two passages before proceeding with experimental conditions.
Cytotoxicity assays: For adherent cell lines, the cells were dissociated with enzyme-free PBS-based cell dissociation buffer (Gibco, USA) and plated on tissue culture treated 96-well flat bottom polystyrene plates (Costar, Corning, USA) at appropriate cell densities depending on doubling time of the cells. 18 hours after plating, cells were treated with test articles at appropriate concentrations starting at 100 nM and diluted in 4-fold serial dilutions. For suspension cell lines, the cells were seeded on the same day of treatment and cells were treated as described above. Adherent cells were treated for 5 days and suspension cells were treated for 3 days. Cell proliferation was assessed using the Cell Counting Kit-8 (CCK-8, Dojindo Laboratories, Japan) and measurements were obtained using the Promega GloMax Discover plate reader (Promega, USA). Data were analyzed using GraphPad Prism software (GraphPad Software, San Diego, CA). All data points were obtained from technical triplicates and the experiments were validated using three biological replicates.

B1: Ontuxizumab-Compound (Ia) (conjugate, chains of the INN, looked up)
VH: QVQLQESGPGLVRPSQTLSLTCTASGYTFTDYVIHWVKQPPGRGLEWIGYINPYDDDTTYNQKFKGRVTMLVDTSSNTAYLRLSSVTAEDTAVYYCARRGNSYDGYFDYSMDYWGSGTPVTVSS
VL: DIQMTQSPSSLSASVGDRVTITCRASQNVGTAVAWLQQTPGKAPKLLIYSASNRYTGVPSRFSGSGSGTDYTFTISSLQPEDIATYYCQQYTNYPMYTFGQGTKVQIK
modifications: conjugated to Compound (Ia)
For B1, which IC50 is on record?
The IC50 was 27.3 pM.
